According to PMC8924000 (2022):

Biological target: recombinant YBX1 with a C-terminal 6×His tag (UniProt P67809 1-324)
Test: BLI

recombinant YBX1 with a C-terminal 6×His tag, sequence (P67809 whole entry): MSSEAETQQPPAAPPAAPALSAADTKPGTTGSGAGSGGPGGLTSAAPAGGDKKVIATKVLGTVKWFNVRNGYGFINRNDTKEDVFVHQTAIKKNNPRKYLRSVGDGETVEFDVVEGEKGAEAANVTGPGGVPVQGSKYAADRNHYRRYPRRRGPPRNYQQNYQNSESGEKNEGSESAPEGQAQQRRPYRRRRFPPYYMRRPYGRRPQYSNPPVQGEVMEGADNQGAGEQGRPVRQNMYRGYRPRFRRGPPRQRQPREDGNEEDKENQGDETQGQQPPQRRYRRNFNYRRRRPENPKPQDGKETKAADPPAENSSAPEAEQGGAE

B1: recombinant GSDME with a C-terminal 6×His tag (natural protein)
chain: MFAKATRNFLREVDADGDLIAVSNLNDSDKLQLLSLVTKKKRFWCWQRPKYQFLSLTLGDVLIEDQFPSPVVVESDFVKYEGKFANHVSGTLETALGKVKLNLGGSSRVESQSSFGTLRKQEVDLQQLIRDSAERTINLRNPVLQQVLEGRNEVLCVLTQKITTMQKCVISEHMQVEEKCGGIVGIQTKTVQVSATEDGNVTKDSNVVLEIPAATTIAYGVIELYVKLDGQFEFCLLRGKQGGFENKKRIDSVYLDPLVFREFAFIDMPDAAHGISSQDGPLSVLKQATLLLERNFHPFAELPEPQQTALSDIFQAVLFDDELLMVLEPVCDDLVSGLSPTVAVLGELKPRQQQDLVAFLQLVGCSLQGGCPGPEDAGSKQLFMTAYFLVSALAEMPDSAAALLGTCCKLQIIPTLCHLLRALSDDGVSDLEDPTLTPLKDTERFGIVQRLFASADISLERLKSSVKAVILKDSKVFPLLLCITLNGLCALGREHS
- Kd: 0.0248 nM
